Series [1] deals with T1, saCAT1 (chloramphenicol acetyltransferase type A, S. aureus) (Staphylococcus aureus, UniProt P00485).
T1 construct: gene cat; residues 1-216; four amino acids (GSLE) remain at the N-terminus after thrombin cleavage; homotrimer
Put plainly: DTNB colorimetric acetyltransferase assay at […] nm, FA […], at […] chloramphenicol. The class given is biochemical.

The test system of series [2] is O=C(N[C@H](CO)[C@H](O)c1ccc([N+](=O)[O-])cc1)C(Cl)Cl. Briefly: purified protein. In kind it is biochemical, Staphylococcus aureus. The conditions noted are these: acetyl-CoA ([…] in assay) docked only: inter-protomer pocket; Ser140, Ser142, Tyr20, Thr25, catalytic His189.
Series [3] concerns the molecule itself. Put plainly: crystal structure; X-ray, space group P321, 1.8 Å; hanging drop at 16 °C, 0.01 M cobalt (II) chloride, 0.1 M sodium acetate pH 4.6, 1 M 1,6-hexanediol; trimer on the crystallographic 3-fold axis, interfaces analysed with PISA.

Usually Ki stands for a measure of affinity in units of concentration, obtained from inhibition or displacement. A high value points to a looser hold on the target. As for `CC(=O)O[C@H]1C[C@@]2(C)[C@@H](C[C@@H](O)[C@H]3[C@@]4(C)CC[C@@H](O)[C@@H](C)[C@@H]4CC[C@@]32C)/C1=C(\CCC=C(C)C)C(=O)O` [FA, fusidic acid], the Ki in series [1] is 83.7 µM.

One may read the Km as the concentration of substrate that gives half-maximal velocity. Turning to “saCAT1 (chloramphenicol acetyltransferase type A, S. aureus) (Staphylococcus aureus)”, the Michaelis-Menten constant (Km) in series [2] is on record as 16.9 ± 3.0 µM.

B1: Staphylococcus aureus chloramphenicol acetyltransferase 1 (saCAT1) (enzyme)
chain: GSLEMNFNKIDLDNWKRKEIFNHYLNQQTTFSITTEIDISVLYRNIKQEGYKFYPAFIFLVTRVINSNTAFRTGYNSDGELGYWDKLEPLYTIFDGVSKTFSGIWTPVKNDFKEFYDLYLSDVEKYNGSGKLFPKTPIPENAFSLSIIPWTSFTGFNLNINNNSNYLLPIITAGKFINKGNSIYLPLSLQVHHSVCDGYHAGLFMNSIQELSDRPNDWLL
notes: four amino acids that remain at the N-terminus after thrombin cleavage of the His tag; chloramphenicol acetyltransferase encoded by the cat1 gene of Staphylococcus aureus plasmid pC194; all residues (1-216) modelled in the crystal structure; Cloned into the vector pFs91G (N-terminal 6xHis tag and thrombin site); Homotrimer in solution and in the crystal; one protomer in the asymmetric unit, the …
The stoichiometry N is a count of units in the complex or per binding partner. Take B1: the “stoichiometry N” value in series [3] amounted to 3.

These data come from PMC12549896, “Structural basis for antibiotic resistance by chloramphenicol acetyltransferase type A in Staphylococcus aureus” (Scientific Reports, 2025).
